PMC3484714 (Journal of the American Chemical Society, 2012)
Read-outs that look alike come from different tables or passages of the source.

B1: methyltransferase (MeTr) from Moorella thermoacetica, homodimer (enzyme, UniProt Q46389 1-262, looked up)
chain: MLIIGERINGMFGDIKRAIQERDPAPVQEWARRQEEGGARALDLNVGPAVQDKVSAMEWLVEVTQEVSNLTLCLDSTNIKAIEAGLKKCKNRAMINSTNAEREKVEKLFPLAVEHGAALIGLTMNKTGIPKDSDTRLAFAMELVAAADEFGLPMEDLYIDPLILPANVAQDHAPEVLKTLQQIKMLADPAPKTVLGLSNVSQNCQNRPLINRTFLAMAMACGLDAAIADACDEALIETAATAEILLNQTVYCDSFVKMFKTR

Assays:
SAXS = biological target: the molecule itself; experiment: SAXS
[1] = biological target: B1; experiment: ITC
[2] = biological target: B1; experiment: SAXS
[3] = biological target: B1; experiment: SAXS; remark: listed apart in the source

## B1
SAXS
  stoichiometry N: 2

B2: corrinoid iron-sulfur protein (CFeSP) from Moorella thermoacetica, heterodimer of large and small subunit (complex)
chain 1: MPLTGLEIYKQLPKKNCGECGTPTCLAFAMNLASGKASLDSCPYVSDAAREALDAAAAPPIAKVVLGAGPTAVEMGDETELFRHDKRFYHETAIAIQVSDNLSSEELKAKVEAINGLNFDRVGQHYTIQAIAIRHDADDPAAFKAAVASVAAATQLNLVLMADDPDVLKEALAGVADRKPLLYAATGANYEAMTALAKENNCPLAVYGNGLEELAELVDKIVALGHKQLVLDPGARETSRAIADFTQIRRLAIKKRFRSFGYPIIALTTAANPLDEVLQAVNYVTKYASLVVLRTDAKEHLLPLLSWRQNLYTDPQVPIRVEEKLNEIGAVNENSPVYVTTNFSLTYYSVEGEIESTKIPSYLLSVDTDGLSVLTAYADGKFEAEKIAAVMKKVDLDNKVKRHRIIIPGAVAVLKGKLEDLTGWEVIVGPREASGIVAFARANLAS
chain 2: MAVQILRDRSRAAVQKVVLGATKDQGGTRSHTIVVGGDAALPFHHFEGEIVNRPVIGMEVQDIVPDWPDVLKDPFTDVINEPGRWAQKCVAEYGADLIYLKLDGADPEGANHSVDQCVATVKEVLQAVGVPLVVVGCGDVEKDHEVLEAVAEAAAGENLLLGNAEQENYKSLTAACMVHKHNIIARSPLDINICKQLNILINEMNLPLDHIVIDPSIGGLGYGIEYSFSIMERIRLGALQGDKMLSMPVICTVGYEAWRAKEASAPVSEYPGWGKETERGILWEAVTATALLQAGAHILLMRHPEAVARVKENIDQLMVSNAY
[1]
  KD of the first binding event: 7.7 µM
  KD of the second binding event: 111 µM
  dH (1:1 complex): 4.9 kcal/mol
[2]
  stoichiometry N: 1 CFeSP heterodimer per MeTr homodimer
[3]
  stoichiometry N: 2 CFeSP heterodimer per MeTr homodimer
